Source: PMC8141524, “The uncharacterized SANT and BTB domain-containing protein SANBR inhibits class switch recombination” (The Journal of Biological Chemistry, 2021)

Key:
[1] = molecular target: the molecule itself; assay: SEC; purified His6-SANBR(BTB) on a Superdex-200 10/30 column, compared with molecular weight standards; SEC buffer 10 mM HEPES pH 8.0, 0.3 M NaCl, 10% glycerol, 1 mM TCEP
GST-tagged mouse HDAC1 = molecular target: T1, GST-tagged mouse HDAC1 (mouse, UniProt O09106 1-482); assay: pull-down; 200 nM His6-tagged BTB domain with equimolar GST-tagged protein, 50 mM HEPES pH 8.0, 150 mM NaCl, 0.1% IGEPAL-CA630, 2 mM EDTA, 4 °C; glutathione sepharose 4B; immunoblot anti-His; conditions: both partners purified
T1 construct: histone deacetylase 1 (HDAC1), mouse; also called GST-HDAC1; source: E. coli BL21DE3(RIPL), purified (glutathione sepharose 4B, SEC)
T1 sequence (O09106 whole entry, the tested form may be a part): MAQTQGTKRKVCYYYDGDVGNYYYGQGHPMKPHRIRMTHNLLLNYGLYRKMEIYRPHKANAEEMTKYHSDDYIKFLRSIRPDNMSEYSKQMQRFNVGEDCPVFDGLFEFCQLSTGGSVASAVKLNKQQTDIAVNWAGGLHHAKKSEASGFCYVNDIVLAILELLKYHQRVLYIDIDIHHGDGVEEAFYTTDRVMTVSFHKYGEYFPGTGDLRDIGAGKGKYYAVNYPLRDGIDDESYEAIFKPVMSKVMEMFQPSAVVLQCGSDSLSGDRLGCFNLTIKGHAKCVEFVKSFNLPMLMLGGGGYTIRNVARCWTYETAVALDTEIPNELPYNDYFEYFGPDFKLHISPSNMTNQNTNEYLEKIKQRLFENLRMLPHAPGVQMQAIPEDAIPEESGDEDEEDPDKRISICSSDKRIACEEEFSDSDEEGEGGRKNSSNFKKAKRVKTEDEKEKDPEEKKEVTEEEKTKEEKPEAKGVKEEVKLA

binding result (GST-tagged mouse HDAC1): binds
B1: His6-SANBR(BTB), the predicted BTB domain of SANBR (amino acids 144-261) (domain or fragment, mouse, UniProt Q68FF0-1 144-261, looked up)
chain: GPNMVIHVCDEAKSLKEDFICPRDLLISEMKYFAEYLSMDAQRWEEVDISVHCDVHIFNWLIKYVKRNTKESKDCEIPALEPGNVISILISSEFLKMDSLVEQCIQYCHKNMNAIVAA
notes: SANBR (KIAA1841), mouse, residues 144-261 containing the BTB domain (predicted BTB domain 147-255); full-length protein has 718 amino acids; cDNA cloned from stimulated mouse splenic B cells; predicted size of the tagged fragment 15 kD; also called His6-tagged SANBR(BTB); KIAA1841 BTB domain; source: E. coli BL21DE3(RIPL), purified (HisTrap FF, SEC); not shown: His6, N-terminal, kept
stoichiometry N [1]: 2
